Values of other authors as cited in paper PMC5193440.

System: Cys
Settings: not stated

Row | Substance | pKa
1 | DsbA (SeDsbA) (Salmonella enterica (inferred from the abbreviation; the article only calls it an enterobacterial DsbA)) | 3.3 ± 0.06
2 | DsbA (SaDsbA) (Staphylococcus aureus) | 3.4 ± 0.07
3 | DsbA (MtbDsbA, Rv2969c) (Mycobacterium tuberculosis) | 4.2 ± 0.2
4 | DsbA (KpDsbA) (Klebsiella pneumoniae) | 3.2
5 | DsbA1 (NmDsbA1) (Neisseria meningitidis) | 3.0
6 | DsbA1 (WpDsbA1, alpha-DsbA1), wild type (Wolbachia pipientis) | 4.7 ± 0.08
7 | DsbA (VcDsbA, TcpG) (Vibrio cholerae) | 5.1

Target: Cys30 (UniProt position 49, FFSFFCPHCYQ)
Settings: reduced active site (dithiol form)

Row | Substance | pKa
8 | DsbA (thiol:disulfide interchange protein, EcDsbA) (Escherichia coli) | 3.3 ± 0.09
